Assay results reported in article PMC4256095.

Molecular target: actin (UniProt P68135)
Test: other fluorescence titration

Chain of recombinant human cofilin (P23528 whole entry): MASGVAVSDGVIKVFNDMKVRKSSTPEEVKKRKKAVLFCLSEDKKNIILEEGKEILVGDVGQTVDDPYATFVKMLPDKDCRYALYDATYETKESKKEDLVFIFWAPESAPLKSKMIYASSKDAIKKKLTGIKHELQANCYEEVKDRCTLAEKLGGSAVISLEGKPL

recombinant human cofilin (from UniProt P23528 1-166) (natural protein)
binding density (νcof) at 3 µM cofilin: > 0.9
